Data taken from US20150037339A1 (Regeneron, published 2015).

T1: Activin AB (human, UniProt P08476 311-426; P09529 293-407)
T1 chain 1: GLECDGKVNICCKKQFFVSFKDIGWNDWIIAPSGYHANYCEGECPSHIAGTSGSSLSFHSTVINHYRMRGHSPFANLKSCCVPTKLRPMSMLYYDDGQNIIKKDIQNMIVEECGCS
T1 chain 2: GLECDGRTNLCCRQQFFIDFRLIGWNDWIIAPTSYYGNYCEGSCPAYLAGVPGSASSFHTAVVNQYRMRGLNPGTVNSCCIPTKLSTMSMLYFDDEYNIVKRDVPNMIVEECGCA

T2: Activin A (human, UniProt P08476 311-426)
T2 sequence: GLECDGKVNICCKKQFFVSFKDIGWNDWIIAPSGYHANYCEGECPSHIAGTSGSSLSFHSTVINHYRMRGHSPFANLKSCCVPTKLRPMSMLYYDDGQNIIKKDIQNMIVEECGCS

T3: Activin AC (human, UniProt P55103 237-352)
T3 sequence 1: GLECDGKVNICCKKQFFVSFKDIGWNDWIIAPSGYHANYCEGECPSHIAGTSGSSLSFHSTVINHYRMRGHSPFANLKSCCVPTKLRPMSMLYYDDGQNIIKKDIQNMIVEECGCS
T3 sequence 2: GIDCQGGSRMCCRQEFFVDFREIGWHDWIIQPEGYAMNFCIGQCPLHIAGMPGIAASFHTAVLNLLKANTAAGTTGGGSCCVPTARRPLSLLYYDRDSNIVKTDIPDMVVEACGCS

T4: hBMP7 (human, UniProt P18075 293-431)
T4 construct: Bought protein
T4 sequence (looked up): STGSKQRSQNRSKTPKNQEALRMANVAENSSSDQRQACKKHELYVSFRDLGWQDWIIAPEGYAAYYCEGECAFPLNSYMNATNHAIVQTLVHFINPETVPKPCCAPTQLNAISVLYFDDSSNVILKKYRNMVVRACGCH

T5: hBMP4 (human, UniProt P12644 293-408)
T5 construct: Bought protein
T5 sequence (looked up): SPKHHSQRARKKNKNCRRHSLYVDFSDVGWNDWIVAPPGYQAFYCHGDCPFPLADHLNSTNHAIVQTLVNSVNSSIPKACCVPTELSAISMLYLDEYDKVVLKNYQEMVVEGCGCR

T6: hBMP10 (human, UniProt O95393 317-424)
T6 construct: Bought protein
T6 sequence (looked up): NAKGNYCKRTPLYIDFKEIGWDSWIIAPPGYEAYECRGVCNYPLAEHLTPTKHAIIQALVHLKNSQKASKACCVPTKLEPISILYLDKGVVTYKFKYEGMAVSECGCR

T7: Activin B (human, UniProt P09529 293-407)
T7 construct: Homodimer of two betaB subunits; bought (R&D Systems #659-AB)
T7 chain: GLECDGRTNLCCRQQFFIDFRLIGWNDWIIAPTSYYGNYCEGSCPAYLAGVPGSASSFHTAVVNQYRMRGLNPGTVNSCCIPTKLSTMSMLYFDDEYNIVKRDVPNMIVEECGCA

T8: hBMP9 (human, UniProt Q9UK05 320-429)
T8 construct: Bought protein
T8 sequence (looked up): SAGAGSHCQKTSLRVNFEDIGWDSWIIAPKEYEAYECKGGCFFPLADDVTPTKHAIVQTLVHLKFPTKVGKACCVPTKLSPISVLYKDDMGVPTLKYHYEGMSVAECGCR

T9: hBMP6 (human, UniProt P22004 382-513, limits assumed)
T9 construct: Bought protein
T9 sequence (looked up): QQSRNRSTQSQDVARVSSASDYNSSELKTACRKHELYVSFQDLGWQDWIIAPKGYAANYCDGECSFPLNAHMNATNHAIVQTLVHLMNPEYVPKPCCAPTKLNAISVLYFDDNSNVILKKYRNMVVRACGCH


Columns and labels:
Activin AB [1] = molecular target: T1, Activin AB; test: cell-based or functional assay
Activin A [2] = molecular target: T2, Activin A; test: cell-based or functional assay
Activin AC [3] = molecular target: T3, Activin AC; test: cell-based or functional assay
GDF11 = molecular target: T10, GDF11 (human, UniProt O95390 299-407); test: SPR (Biacore 4000), captured on anti-human Fc, 200 nM ligand injected, 37 C
T10 construct: Bought protein; also called hGDF11
Protocol: (§1) For the binding experiment, a Biacore 4000 instrument was used. […] All Biacore binding studies were performed in HBS-T running buffer (0.01 M HEPES pH 7.4, 0.5 M NaCl, 3 mM EDTA, 0.5 mg/ml bovine serum albumin, 0.05% v/v Surfactant P20). […] All binding measurements were performed at 37° C. […] Over the captured antibody surface was injected the TGF-beta family ligands through concentrations ranging from 3.1 nM to 200 nM.

hBMP7 = molecular target: T4, hBMP7; test: as above
Protocol: as §1

hBMP4 = molecular target: T5, hBMP4; test: as above
Protocol: as §1

hBMP10 = molecular target: T6, hBMP10; test: as above
Protocol: as §1

Activin B = molecular target: T7, Activin B; test: as above
Protocol: as §1

hBMP9 = molecular target: T8, hBMP9; test: as above
Protocol: as §1

hBMP6 = molecular target: T9, hBMP6; test: as above
Protocol: as §1

Activin AB [4] = molecular target: T1, Activin AB; test: as above
Protocol: as §1

Activin A [5] = molecular target: T2, Activin A; test: as above
Protocol: as §1

Activin AC [6] = molecular target: T3, Activin AC; test: as above
Protocol: as §1

GDF8 = molecular target: T11, GDF8 (human, UniProt O14793 267-375); test: as above
T11 construct: Bought (R&D Systems #788-G8); also called hGDF8; growth and differentiation factor-8
Protocol: as §1

hBMP2 = molecular target: T12, hBMP2 (human, UniProt P12643 283-396); test: as above
T12 construct: Bought protein; also called BPM2
Protocol: as §1

Activin AB [7] = molecular target: T1, Activin AB; test: SPR (Biacore), mAb captured on anti-Fc, Activin AB injected, 25 C
Outline: (§2)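 Association was monitored for 240 s and dissociation in buffer for 600 s. Rate constants came from kinetic fitting; KD was calculated as kd/ka and dissociative half-life as ln2/(60*kd), in minutes.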

Activin AC [8] = molecular target: T3, Activin AC; test: SPR (Biacore), mAb captured on anti-Fc, Activin AC injected, 25 C
Outline: as §2

Activin AC [9] = molecular target: T3, Activin AC; test: SPR (Biacore), mAb captured on anti-Fc, Activin AC injected, 37 C
Outline: as §2

Activin AB [10] = molecular target: T1, Activin AB; test: SPR (Biacore), mAb captured on anti-Fc, Activin AB injected, 37 C
Outline: as §2

T10 sequence (O95390 299-407 limits assumed): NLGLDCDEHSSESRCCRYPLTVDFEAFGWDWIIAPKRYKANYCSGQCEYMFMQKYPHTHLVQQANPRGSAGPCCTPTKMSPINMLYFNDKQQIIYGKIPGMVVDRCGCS
T12 sequence (P12643 283-396 limits assumed): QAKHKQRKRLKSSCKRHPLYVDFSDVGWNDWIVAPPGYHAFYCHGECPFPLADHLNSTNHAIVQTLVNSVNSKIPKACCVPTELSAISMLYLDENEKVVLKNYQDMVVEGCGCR

| Binder | IC50 [M], inhibition of 30 pM Activin AB in A204/CAGAx12-Luc Smad2/3-luciferase bioassay (Activin AB [1]) | IC50 [M], inhibition of 100 pM Activin A in A204/CAGAx12-Luc Smad2/3-luciferase bioassay (Activin A [2]) | IC50 [M], inhibition of 4 nM Activin AC in A204/CAGAx12-Luc Smad2/3-luciferase bioassay (Activin AC [3]) | binding response (resonance units) for 200 nM ligand (GDF11) | binding response (resonance units) for 200 nM ligand (hBMP7) | binding response (resonance units) for 200 nM ligand (hBMP4) | binding response (resonance units) for 200 nM ligand (hBMP10) | binding response (resonance units) for 200 nM ligand (Activin B) | binding response (resonance units) for 200 nM ligand (hBMP9) | binding response (resonance units) for 200 nM ligand (hBMP6) | binding response (resonance units) for 200 nM ligand (Activin AB [4]) | binding response (resonance units) for 200 nM ligand (Activin A [5]) | binding response (resonance units) for 200 nM ligand (Activin AC [6]) | binding response (resonance units) for 200 nM ligand (GDF8) | binding response (resonance units) for 200 nM ligand (hBMP2) | 50 nM Ag Bound (RU) (Activin AB [7]) | Kd (Activin AB [7]) | koff (Activin AB [7]) | kon (Activin AB [7]) | t1/2 (Activin AB [7]) | further results |
| --- | --- | --- | --- | --- | --- | --- | --- | --- | --- | --- | --- | --- | --- | --- | --- | --- | --- | --- | --- | --- | --- |
| H4H10430P (antibody, human IgG4, V domains shown) VH: EVQLVESGGGLVQPGRSLRLSCKASGFAFDDFAMHWVRQAPGKGLEWVSGIVWNSGDIGYADSVKGRFTISRDNAKNSLYLQLNSLRTEDTALYFCVKDMVRGLMGFNYYGMDVWGQGTTVTVSS VL: EIVLTQSPATLSLSPGERATLSCRASQTISTYLVWYRQRPGQAPSLLIYDASNRATDIPARFSGSGSGTDFTLTISSLEPEDFAVYYCQQRSNWPITFGQGTRLEIK | 1e-10 M | 6.1e-11 M | 9.3e-10 M | 3 RU | 6.4 RU | -0.6 RU | 0.3 RU | 0.4 RU | -0.6 RU | 5.7 RU | 95 RU | 69.1 RU | 34.8 RU | -0.1 RU | -1.7 RU | 33 RU | 0.0185 nM | 0.000217 s⁻¹ | 1.17e+07 M⁻¹ s⁻¹ | 53.3 min | 50 nM Ag Bound (RU) (Activin AC [8]): 23.6 RU; Kd (Activin AC [8]): 8.86 nM; koff (Activin AC [8]): 0.0109 s⁻¹; kon (Activin AC [8]): 1.23e+06 M⁻¹ s⁻¹; t1/2 (Activin AC [8]): 1.1 min; 50 nM Ag Bound (RU) (Activin AC [9]): 25.3 RU; Kd (Activin AC [9]): 16.7 nM; koff (Activin AC [9]): 0.02 s⁻¹; kon (Activin AC [9]): 1.2e+06 M⁻¹ s⁻¹; t1/2 (Activin AC [9]): 0.6 min; 50 nM Ag Bound (RU) (Activin AB [10]): 41 RU; Kd (Activin AB [10]): 0.0535 nM; koff (Activin AB [10]): 0.000541 s⁻¹; kon (Activin AB [10]): 1.01e+07 M⁻¹ s⁻¹; t1/2 (Activin AB [10]): 21.3 min |
| H4H10442P2 (antibody, human IgG4, V domains shown) VH: QVQLQESGPGLVKPSETLSITCTVSGGSFSSHFWTWIRQPPGKGLEWIGYLHYSGGTSYNPSLKSRVIISVDTSKNQFSLKLNSVTAADTAVYYCARARSGITFGGLIVPGSFDIWGQGTMVTVSS VL: not shown | 2.2e-09 M | 5.6e-11 M | 6.5e-09 M | 1 RU | 1.5 RU | -0.7 RU | -0.7 RU | -1.8 RU | 0 RU | 1.1 RU | 65.2 RU | 63.9 RU | 14.2 RU | 0.5 RU | -2.3 RU | 34.6 RU | 0.32 nM | 0.00177 s⁻¹ | 5.53e+06 M⁻¹ s⁻¹ | 6.5 min | 50 nM Ag Bound (RU) (Activin AC [8]): 18.6 RU; Kd (Activin AC [8]): 1.57 nM; koff (Activin AC [8]): 0.00205 s⁻¹; kon (Activin AC [8]): 1.31e+06 M⁻¹ s⁻¹; t1/2 (Activin AC [8]): 5.6 min; 50 nM Ag Bound (RU) (Activin AC [9]): 21.4 RU; Kd (Activin AC [9]): 4.1 nM; koff (Activin AC [9]): 0.00599 s⁻¹; kon (Activin AC [9]): 1.46e+06 M⁻¹ s⁻¹; t1/2 (Activin AC [9]): 1.9 min; 50 nM Ag Bound (RU) (Activin AB [10]): 45.9 RU; Kd (Activin AB [10]): 0.464 nM; koff (Activin AB [10]): 0.00425 s⁻¹; kon (Activin AB [10]): 9.17e+06 M⁻¹ s⁻¹; t1/2 (Activin AB [10]): 2.7 min |
